Data from patent US20240383999A1 (University of Texas, published 2024).

T1: Human recombinant CD5L protein (Sino Biological, Catalog Number 10791-H08H) (human, UniProt O43866 20-347)
T1 construct: Bought protein; also called human CD5L; CD5L-His; not shown: 6xHIS-tag
T1 sequence (looked up): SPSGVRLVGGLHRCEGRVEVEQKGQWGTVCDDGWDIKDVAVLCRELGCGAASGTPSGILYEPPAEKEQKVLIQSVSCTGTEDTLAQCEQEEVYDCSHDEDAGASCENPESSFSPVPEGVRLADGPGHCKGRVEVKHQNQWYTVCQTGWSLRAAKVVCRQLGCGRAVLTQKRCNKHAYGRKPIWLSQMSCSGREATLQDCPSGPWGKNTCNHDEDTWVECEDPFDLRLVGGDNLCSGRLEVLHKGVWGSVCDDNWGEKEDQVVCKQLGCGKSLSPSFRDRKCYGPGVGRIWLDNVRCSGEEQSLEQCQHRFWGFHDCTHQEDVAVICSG


molecular target: T1, Human recombinant CD5L protein (Sino …); test: BLI (Octet RED96), antibody on Protein A biosensors, CD5L-His in solution, global fit
Description: Kinetic binding parameters (KD, kon, and koff) in (Table 11) were determined using Octet RED96 instrument and binding curves are shown in FIG. 17. […] KDs are calculated using Octet software with global fitting model.

| Kd [pM] | koff [s⁻¹] | kon [M⁻¹ s⁻¹] | Binder |
| --- | --- | --- | --- |
| < 1 | < 1e-07 | 146000 | CD5L-35Hu-1 (antibody, V domains shown, also called humanized CD5L-35Hu mAb (CD5L-35Hu-H1 + CD5L-35Hu-K1)) VH: QVQLVESGGGVVQPGRSLRLSCAASGIDLSDYYMTWVRQAPGKGLEYIGIIYASGNAYFASWAKGRFTISRDSSTNTLFLQMNSLRAEDTAVYYCARNIGGSSNLWGQGTLVTVSS VL: AIQLTQSPSSLSASVGDRVTITCQASERIYNNLAWYQQKPGKAPKLLFYSASTLASGVPSRFSGSGSGTDFTLTISSLQPEDFATYYCQCTGYGTTYGLVFGGGTKVEIK |
| < 1 | < 1e-07 | 119000 | CD5L-35Hu-3 (antibody, V domains shown, also called humanized CD5L-35Hu mAb (CD5L-35Hu-H2 + CD5L-35Hu-K1)) VH: QVQLVESGGGVVQPGRSLRLSCAASGIDLSDYYMTWVRQAPGKGLEYIGIIYASGNAYFASWAKGRFTISRDNSTNTVFLQMNSLRAEDTAVYYCARNIGGSSNLWGQGTLVTVSS VL: AIQLTQSPSSLSASVGDRVTITCQASERIYNNLAWYQQKPGKAPKLLFYSASTLASGVPSRFSGSGSGTDFTLTISSLQPEDFATYYCQCTGYGTTYGLVFGGGTKVEIK |
| < 1 | < 1e-07 | 125000 | CD5L-35Hu-2 (antibody, V domains shown, also called humanized CD5L-35Hu mAb (CD5L-35Hu-H1 + CD5L-35Hu-K2)) VH: QVQLVESGGGVVQPGRSLRLSCAASGIDLSDYYMTWVRQAPGKGLEYIGIIYASGNAYFASWAKGRFTISRDSSTNTLFLQMNSLRAEDTAVYYCARNIGGSSNLWGQGTLVTVSS VL: ELQLTQTPSSLSASVGDRVTIKCQASERIYNNLAWYQQKPGKAPKLLFYSASTLASGVPSRFSGSGSGTDFTLTISSLQPEDFATYYCQCTGYGTTYGLVFGGGTKVEIK |
| < 1 | < 1e-07 | 106000 | CD5L-35Hu-4 (antibody, V domains shown, also called humanized CD5L-35Hu mAb (CD5L-35Hu-H2 + CD5L-35Hu-K2)) VH: QVQLVESGGGVVQPGRSLRLSCAASGIDLSDYYMTWVRQAPGKGLEYIGIIYASGNAYFASWAKGRFTISRDNSTNTVFLQMNSLRAEDTAVYYCARNIGGSSNLWGQGTLVTVSS VL: ELQLTQTPSSLSASVGDRVTIKCQASERIYNNLAWYQQKPGKAPKLLFYSASTLASGVPSRFSGSGSGTDFTLTISSLQPEDFATYYCQCTGYGTTYGLVFGGGTKVEIK |

molecular target: T1, Human recombinant CD5L protein (Sino …); test: titration ELISA, human CD5L coated on plate
Description: FIG. 11. […] Bound antibody was detected using a secondary antibody against rabbit IgG conjugated with HRP and TMB substrate for detection of A450 nm. EC₅₀ was estimated using GraphPad software by applying a 4-parameter fitting to calculate binding affinity of the antibodies.
Binding constants (EC₅₀) of a panel of monoclonal antibodies were estimated by titration ELISA, and the data were analyzed using the 4-parameter curve fitting with GraphPad Prism program (Table 6).

| EC50 [µg/mL] | Binder |
| --- | --- |
| 0.278 | R-36 (antibody, V domains shown) VH: QSVKESGGGLFQPGGSLALTCKASGFSLSKNYVMCWVRQAPGKGLEWIACIYAGDGNTYYVSWAKGRFTISKTSSTTVTLQMTSLTAADTATYFCARWDYIGNNNLWGPGTLVTISS VL: ELVLTQTPASVEAAVGGTVTIKCQASQTISSYLAWYQQKPGQPPKLLIYRASTLASGVPSRFKGSGSGTQFTLTISDLECADGATYYCQCPYYGSSHVGAFGGGTEVVVK |
| 0.246 | R-39 (antibody, V domains shown) VH: QSLEESGGRLVTPGGSLTLTCTVSGIDLSSYTMGWVRQAPGKGLEWIGVIAINGGTVYASWAKGRFTISKTSTTVDLKMTSPTPEDTATYFCARGAGKTWSSFNLWGQGTLVTISS VL: ELVLTQTPASVSEPVGGTVTIKCQASQSIGSNLAWYQQKPGQPPKLLIYRASTLESGVPSRFSGSGSGTEFTLTISDLECADAATYYCQSYYGSSTNAFGGGTEVVVK |
| 0.0144 | R-51 (antibody, V domains shown) VH: QSVKESGGRLVTPGTPLTLTCTVSTIDVSKYAVIWVRQAPGKGLEYIGIISSSGSTYYASWAKGRFTISKTSSTTVDLKMTSPTAEDTATYFCARGGNGVAFKLWGQGTLVTISS VL: ELDLTQTPASVEAAVGGTVTINCQASQSIYSSLAWYQQKPGQPPKLLIYETSKVESGVPSRFSGSGSGTQFTLTISDLECADAATYYCQSHDYISSSGMPFGGGTELEIL |
| 0.14 | R-23 (antibody, V domains shown) VH: QSVEESGGRLVMPGGSLTLTCTVSGIDLSSNTMGWFRQAPGKGLEWIGIMRGGGSTYYATWAKGRFTISKTSTTVDLKLTSPTTEDTATYFCARAFPGYNSFFNFWGQGTLVTISS VL: ELDLTQTPASVSEPVGGTVTIKCQASHNINSALAWYQQKPGQPPKLLIYKASTLASGVPPRFKGSGSGTEFTLTISDLECADAATYYCQRHYFDGASADIAFGGGTEVVVK |
| 0.161 | R-29 (antibody, V domains shown) VH: QSVEESGGRLVTPGTPLTLTCTVSGFSLSSYAMNWVRQAPGKGLEWIGLIYASGTTHYASWVNGRFTISKTSTTVTLKMTSLTAADTATYFCARDSYSTGNLWGQGTLVTISS VL: ELVLTQTPASVSEPVGGTVTIKCQASQSIYSSLVWYQQKPGQPPKLLIYGASNLESGVPSRFKGSGSGTEYTLTISGVQCADAATYYCQCSGYNSRVFGGGTEVEIK |
| 0.0077 | R-49 (antibody, V domains shown) VH: QSVKESGGRLVTPGTPLTLTCTVSGFSLSINAINWVRQAPGKGLEWIGIITNIGNTYYASWAKGRFTISRTSTTVDLTMTSLTTEDTATYFCARNSYFDPWGPGTLVTISS VL: ELVLTQTPSPVSAAVGGTVSISCQASQSVDSNNYCSWYQQKPGQPPKLLIHKASKLASGVPSRFKGSGSGTQFTLTINDLECDDAATYYCAGGLGDNIYAFGGGTEVEIN |

The remaining lines, values behind:

| Binder | EC50 [µg/mL] |
| --- | --- |
| R-6 (antibody, V domains shown) VH: QSLEESGGRLVTPGTPLTLTCTVSTIDVSKYAVIWVRQAPGKGLEYIGIISSSGSTYYASWAKGRFTISKTSSTTVDLKMTSPTAEDTATYFCARGGNGVAFKLWGQGTLVTISS VL: ELDMTQTPASVEAAVGGTVTINCQASESINDRLAWYQLKPGQPPKLLIYETSQVESGVPSRFSGSGSGTQFTLTISDLECADAATYYCQSHDYISSSGMPFGGGTEVVVK | 0.187 |
| R-11 (antibody, V domains shown) VH: QSVKESGGDLVKPGASLTLTCTASGFDFSSNTMCWVRQAPGKGLEYIGYISYSGATHYASWAKGRFTISKTLSTTVTLQMTSLTDADTATYFCARDRGYVDGSYYGDFNLWGPGTLVTVSS VL: ELVMTQTPSSASEPVGGTVTIKCQASQSIASRLAWFQQKPGQPPKLLIYRASTLESGVSSRFKGSGFGTEFTLTISDLECADAATYYCQSYYGSGYGKTFGGGTDVVVK | 0.0474 |
| H-119 (antibody, V domains shown) VH: EVQLVQSGAEVKKPGESLKISCKGSGYSFTSYWIGWVRQMPGKGLEWMGIIYPGDSDTRYSPSFQGQVTISADKSISTAYLQWSSLKASDTAMYYCARGLAASTRFDPWGQGTLVTVSS VL: DVQMTQSPSSLSASVGDRVTITCRPSQSINNYLNWYQQKPGEAPKLLIYAASNLQSGVPSRFSGSGSGTDFTLTISSLQPEDFGTYYCQQSYSIPLTFGGGTTVEIK | 0.0068 |
| R-10 (antibody, V domains shown) VH: QSVKESGGRLVTPGTPLTLTCTLSGIDLSSYAMGWVRQAPGKGLEYIGIIGASGTTYYANWAKGRFTISRTSTTVDLKITSPTTEDTATYFCARAGYAGTGYPTRLDLWGQGTLVTISS VL: ELDMTQTPASVEAAVGGTVTIKCQASQSISSSYLAWYQQKPGQPPKLLIYKASTLESGVPSRFSGSGSGTEFTLTISGVQCDDAATYYCLGGYFSFSNYDYGFGGGTEVEIK | 0.307 |
| R-5 (antibody, V domains shown) VH: QSVKESGGRLVTPGTPLTLTCTVSGFSLSSYAMSWVRQAPGKGLEWIGVIDVTGRTYYASWAKGRFTISKTSTTVDLKITSPTTEDTATYFCGRDSYLDYGDPNGLDPWGPGTLVTISS VL: ELVMTQTPASVEAAVGGTVTIKCQASQSIGSNLAWYQQKPGQPPKLLIYTASNLAPGVSSRFKGSRSGTESTLIISDLECADAATYYCQCTYYGTSYMELGAFGGGTELEIK | 0.148 |
| R-1 (antibody, V domains shown) VH: QSVEESGGRLVTPGTPLTLTCTVSGIDLSNYAINWVRQAPGKGLEWIGMISSGDVTYYASWAKGRFIISRTSSTTVDLKMTSPTIEDTATYFCARFFAGRSESLWGQGTLVTVSS VL: ELDLTQTPSSVSAAVGGTVTINCQSSQSVNKNNYLSWYQQKPGQPPKLLIYSASALASGVSSRFSGSGSGTEFTLTISDVQCDDAATYYCQGTYYDSGWYNAFGGGTEVEIK | 0.0598 |
| R-4 (antibody, V domains shown) VH: QSVEESGGRLVTPGTPLTLTCTASGFSLSSYYMTWVRQAPGKGLEYIGIISDRGSTYYASWAKGRFTIAKTSSTTVDLKLTSLTTEDTATYFCYRGVDGSGGYAAGDLWGQGTLVTISS VL: ELVLTQTPASVEAAVGGTVTIKCQASEDIYSYFAWYQQKPGQRPRLLIYEASKVASGVPSRFKGGGSGTQFTLTISDLECADAATYYCQNNFYMIGDDYGGTFGGGTEVEIK | 0.0713 |
| R-9 (antibody, V domains shown) VH: QSVKESGGRLVTPGTPLTLTCTVSGFYLSTHGMTWVRQAPGKGLEYIGVIVTSGNTYYATWATGRFTISKTSTTVDLKITSPTTEDTATYFCARPGYKSVPLWGQGTLVTISS VL: ELDLTQTPASVSAAVGGTVTINCQASEDIYSGLTWYQQKPGQPPKLLIYRASTLASGVPPRFKGSGSGTEFTLTISDLECDDAATYYCQNNYGSSSNNYVFAFGGGTEVEIK | 0.136 |
| R-21 (antibody, V domains shown) VH: QSVEESGGRLVTPGTPLTLTCTVSGIDLSSYAINWVRQAPGEGLEWIGMISSSDNTYYANWAKGRFTISRDSTTVDLKITSPTTEDTATYFCARFYAGRSYSLWGQGTLVTISS VL: ELDLTQTPASVSAAVGGTVTISCQSSESVYKSNYLSWYQQKAGQPPKLLIYAAATLASGVPSRFKGSGSGTQFTLTISGVQCDDAATYYCQGTYYSSGWYNAFGGGTEVVVK | 0.21 |
